Data: US20030082683A1

Experiments:
[1] = molecular target: rSK2 small conductance, calcium-activated potassium channel (rat), P70604
[2] = molecular target: T1, hIK1 intermediate conductance, calcium-activated potassium channel (human), O15554; test: block of macroscopic hIK1 current, patch clamp on macropatches from Xenopus oocytes
T1 chain: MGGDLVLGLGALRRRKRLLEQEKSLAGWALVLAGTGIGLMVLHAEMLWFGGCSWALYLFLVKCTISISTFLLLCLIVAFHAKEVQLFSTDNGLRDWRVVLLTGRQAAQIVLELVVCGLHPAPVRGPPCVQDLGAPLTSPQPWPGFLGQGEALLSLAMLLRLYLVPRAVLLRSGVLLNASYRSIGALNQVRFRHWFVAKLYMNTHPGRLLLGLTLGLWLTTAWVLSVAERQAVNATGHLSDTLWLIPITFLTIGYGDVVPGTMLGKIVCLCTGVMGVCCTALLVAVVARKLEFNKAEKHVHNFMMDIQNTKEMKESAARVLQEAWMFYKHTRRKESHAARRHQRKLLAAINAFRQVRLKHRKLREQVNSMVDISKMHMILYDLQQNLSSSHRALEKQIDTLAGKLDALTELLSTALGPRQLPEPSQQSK

Chain of rSK2 small conductance, calcium-activated potassium channel (rat), P70604 (P70604 whole entry): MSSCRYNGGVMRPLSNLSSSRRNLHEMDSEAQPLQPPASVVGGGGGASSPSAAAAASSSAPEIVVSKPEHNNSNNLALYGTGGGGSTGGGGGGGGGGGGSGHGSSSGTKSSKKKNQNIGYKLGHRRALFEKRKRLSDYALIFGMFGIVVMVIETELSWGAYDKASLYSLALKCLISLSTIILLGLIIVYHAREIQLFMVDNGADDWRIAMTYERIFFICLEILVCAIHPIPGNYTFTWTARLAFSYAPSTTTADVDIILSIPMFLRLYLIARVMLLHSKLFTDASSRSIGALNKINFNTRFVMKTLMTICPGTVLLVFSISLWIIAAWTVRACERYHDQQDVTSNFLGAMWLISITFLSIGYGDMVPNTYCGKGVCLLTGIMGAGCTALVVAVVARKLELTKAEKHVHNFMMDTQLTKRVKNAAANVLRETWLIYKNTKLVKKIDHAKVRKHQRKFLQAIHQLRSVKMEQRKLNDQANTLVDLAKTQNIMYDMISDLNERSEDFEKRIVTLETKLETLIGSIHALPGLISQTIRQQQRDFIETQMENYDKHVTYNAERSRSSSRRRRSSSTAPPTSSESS

Work on CNCKAPETALCARRCQQH (modifications not checked) [apamin, P01500 28-45] yielded a Kd [1] of 0.063 nM.

In the case of QFTNVSCTTSKECWSVCQRLHNTSRGKCMNKKCRCYS (modifications not checked) [charybdotoxin, P13487 23-59], the Ki [2] is reported as 2.5 nM.
